From US20140242111A1
Values belong to the binder of their own block, whether it stands above or below them.

Biological target: insulin receptor on differentiated 3T3-L1 adipocytes (mouse (murine 3T3-L1 cell line)) (UniProt P15208)
Test: cell-based or functional assay

Sequence of insulin receptor on differentiated 3T3-L1 adipocytes (mouse (murine 3T3-L1 cell line)) (P15208 28-1372): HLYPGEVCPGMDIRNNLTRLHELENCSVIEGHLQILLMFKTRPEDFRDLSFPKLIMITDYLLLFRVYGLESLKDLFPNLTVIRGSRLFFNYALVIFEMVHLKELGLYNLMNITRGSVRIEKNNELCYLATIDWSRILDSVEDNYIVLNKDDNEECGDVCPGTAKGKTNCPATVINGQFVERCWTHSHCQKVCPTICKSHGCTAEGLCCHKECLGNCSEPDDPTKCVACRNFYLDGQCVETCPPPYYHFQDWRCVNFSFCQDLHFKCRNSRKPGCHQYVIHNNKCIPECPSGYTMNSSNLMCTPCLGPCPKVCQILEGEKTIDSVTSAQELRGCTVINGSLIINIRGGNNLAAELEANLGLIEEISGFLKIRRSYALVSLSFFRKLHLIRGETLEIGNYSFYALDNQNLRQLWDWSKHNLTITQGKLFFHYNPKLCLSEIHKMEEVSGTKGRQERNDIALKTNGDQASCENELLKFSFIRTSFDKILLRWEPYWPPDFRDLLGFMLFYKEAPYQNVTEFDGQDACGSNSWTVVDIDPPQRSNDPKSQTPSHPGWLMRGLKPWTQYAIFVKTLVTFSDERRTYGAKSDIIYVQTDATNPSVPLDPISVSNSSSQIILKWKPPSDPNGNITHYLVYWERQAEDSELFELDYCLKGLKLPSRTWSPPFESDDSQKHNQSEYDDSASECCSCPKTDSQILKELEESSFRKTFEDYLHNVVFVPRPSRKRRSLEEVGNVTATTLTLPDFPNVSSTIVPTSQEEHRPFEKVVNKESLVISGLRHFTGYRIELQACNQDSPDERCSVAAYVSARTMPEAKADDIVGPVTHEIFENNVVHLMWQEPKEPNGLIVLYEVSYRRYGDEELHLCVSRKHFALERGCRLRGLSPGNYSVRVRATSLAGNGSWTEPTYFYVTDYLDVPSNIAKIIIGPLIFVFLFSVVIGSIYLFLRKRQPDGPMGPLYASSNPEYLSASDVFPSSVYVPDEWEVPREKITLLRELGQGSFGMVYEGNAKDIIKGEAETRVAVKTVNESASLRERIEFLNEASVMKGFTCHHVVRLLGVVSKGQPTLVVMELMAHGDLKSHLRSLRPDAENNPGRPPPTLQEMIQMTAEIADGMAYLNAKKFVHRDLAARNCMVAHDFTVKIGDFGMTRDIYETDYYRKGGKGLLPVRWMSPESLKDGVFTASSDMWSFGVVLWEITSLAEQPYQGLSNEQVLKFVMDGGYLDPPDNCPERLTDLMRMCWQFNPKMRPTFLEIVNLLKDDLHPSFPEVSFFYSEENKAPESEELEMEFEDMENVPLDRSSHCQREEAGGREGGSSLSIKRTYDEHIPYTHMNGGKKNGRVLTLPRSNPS

Insulin activity (with RGS-His tag), p-Akt on 3T3-L1 adipocytes; culture: M17 with NaOH addition at 0.5 hr (nM commercial insulin (equivalent)): 1
Insulin activity (with RGS-His tag), p-Akt on 3T3-L1 adipocytes; culture: M17 with NaOH addition at 1.5 hr (nM commercial insulin (equivalent)): 1
Insulin activity (with RGS-His tag), p-Akt on 3T3-L1 adipocytes; culture: M17 with NaOH addition at 2.5 hr (nM commercial insulin (equivalent)): < 1
Insulin activity (with RGS-His tag), p-Akt on 3T3-L1 adipocytes; culture: M17 with NaOH addition every hour (nM commercial insulin (equivalent)): 1
p-Akt(Ser473) Western blot on differentiated 3T3-L1 adipocytes, quantified from three independent experiments; supernatant of induced culture treated with NaOH (scale: nM commercial insulin): 1
B1: RGS-His-tagged SCI-57 (single-chain insulin analog secreted by L. lactis NZ9000(pNZPnisA:uspSCI-57his), usp45 signal peptide cleaved) (ligand)
chain: FVNQHLCGSDLVEALYLVCGERGFFYTDPTGGGPRRGIVEQCCHSICSLYQLENYCNRGSHHHHHH

Insulin activity (no tag), p-Akt on 3T3-L1 adipocytes; culture: M17 only (nM commercial insulin (equivalent)): < 1
Insulin activity (no tag), p-Akt on 3T3-L1 adipocytes; culture: M17 with 50 mM sodium phosphates (nM commercial insulin (equivalent)): < 1
Insulin activity (no tag), p-Akt on 3T3-L1 adipocytes; culture: M17 with NaOH addition at 1.5 hr (nM commercial insulin (equivalent)): > 1
B2: SCI-57 without RGS-His tag (single-chain insulin analog secreted by L. lactis NZ9000(pNZPnisA:uspSCI-57)) (ligand)
chain: FVNQHLCGSDLVEALYLVCGERGFFYTDPTGGGPRRGIVEQCCHSICSLYQLENYCN
